We go through one molecule from US20210008162A1 (OP T, published 2021).

Assay [1] concerns the target T1, mouse CD40 on cells (CD40+ T cells / Th40 cells and B cells of NOD mice; mouse CD4+CD40+ cells in culture) (mouse, UniProt P27512 20-289).
T1 construct: whole, on cells; The target is inferred from CD40+ cells; No purified CD40 was tested; also called CD40 protein
T1 sequence (looked up): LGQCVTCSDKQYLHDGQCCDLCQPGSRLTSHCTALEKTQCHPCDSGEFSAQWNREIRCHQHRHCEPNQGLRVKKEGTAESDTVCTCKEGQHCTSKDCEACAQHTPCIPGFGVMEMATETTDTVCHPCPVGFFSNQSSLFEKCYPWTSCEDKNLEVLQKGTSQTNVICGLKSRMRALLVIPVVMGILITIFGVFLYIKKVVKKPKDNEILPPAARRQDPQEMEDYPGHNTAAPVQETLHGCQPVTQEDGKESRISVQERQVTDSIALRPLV
The assay can be described thus: KGYY-15 bound to live CD4+CD40+ cells kept in culture for 10 days, percent bound over days post treatment; the text says 'human or mouse' cells.

Assay [2] addresses T2, human CD40 on CD4+CD40+ cells (human, UniProt P25942 21-277).
T2 construct: whole, on cells
Described as above.

Where no end group is shown, it is not given here.

T2 sequence (P25942 21-277): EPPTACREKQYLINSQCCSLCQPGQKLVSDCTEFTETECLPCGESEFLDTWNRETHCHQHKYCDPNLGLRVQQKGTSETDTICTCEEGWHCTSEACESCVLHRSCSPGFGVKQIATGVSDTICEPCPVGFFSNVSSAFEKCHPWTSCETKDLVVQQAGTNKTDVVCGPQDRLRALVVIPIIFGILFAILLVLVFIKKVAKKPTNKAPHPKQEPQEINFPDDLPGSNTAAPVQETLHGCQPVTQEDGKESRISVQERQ

With VLQWAKKGYYTMKSN-NH2 (also called 15-mer-Form 1) [KGYY-15 (SEQ ID NO:11)], the binding result in assay [1] and in assay [2] was “binds” each time.
